The text below walks through data of US20110306044A1.

Several values for one entry are separate records, joined by “and”; a condition that tells them apart may be missing. Identical values can stand only once.

For test [1], the target named is RDC-1 (NEOKINE receptor), transiently expressed in 293 cells. The experiment in a line: 125I-T112 at 0.1 nm on 293 cells transiently transfected with RDC-1, no competitor.
For test [2] the target is unchanged. The experiment in a line: competition: bound 125I-T112 on RDC-1-transfected 293 cells with unlabelled T112 at 3.0 nm.

On to “125I-T112 (radioiodinated NEOKINE) (ligand)”, for which the cpm bound in cell pellets in test [1] was 37600 cpm and 27000 cpm. Consider T112 (NEOKINE), unlabelled (ligand), for which the cpm bound in cell pellets in test [2] is 8340 cpm and 9230 cpm.
